# According to paper PMC11098746 (2024):
# T1: ADP389
# T1 chain: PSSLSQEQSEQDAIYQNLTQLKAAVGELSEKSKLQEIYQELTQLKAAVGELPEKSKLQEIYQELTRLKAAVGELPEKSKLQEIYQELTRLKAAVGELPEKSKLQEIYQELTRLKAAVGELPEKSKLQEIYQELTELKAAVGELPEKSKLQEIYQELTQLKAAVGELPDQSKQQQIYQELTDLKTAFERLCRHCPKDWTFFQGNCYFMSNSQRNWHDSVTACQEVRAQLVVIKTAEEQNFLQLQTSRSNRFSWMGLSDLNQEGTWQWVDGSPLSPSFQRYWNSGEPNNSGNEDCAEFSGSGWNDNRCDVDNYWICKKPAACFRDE
# T2: ADP334
# T2 chain: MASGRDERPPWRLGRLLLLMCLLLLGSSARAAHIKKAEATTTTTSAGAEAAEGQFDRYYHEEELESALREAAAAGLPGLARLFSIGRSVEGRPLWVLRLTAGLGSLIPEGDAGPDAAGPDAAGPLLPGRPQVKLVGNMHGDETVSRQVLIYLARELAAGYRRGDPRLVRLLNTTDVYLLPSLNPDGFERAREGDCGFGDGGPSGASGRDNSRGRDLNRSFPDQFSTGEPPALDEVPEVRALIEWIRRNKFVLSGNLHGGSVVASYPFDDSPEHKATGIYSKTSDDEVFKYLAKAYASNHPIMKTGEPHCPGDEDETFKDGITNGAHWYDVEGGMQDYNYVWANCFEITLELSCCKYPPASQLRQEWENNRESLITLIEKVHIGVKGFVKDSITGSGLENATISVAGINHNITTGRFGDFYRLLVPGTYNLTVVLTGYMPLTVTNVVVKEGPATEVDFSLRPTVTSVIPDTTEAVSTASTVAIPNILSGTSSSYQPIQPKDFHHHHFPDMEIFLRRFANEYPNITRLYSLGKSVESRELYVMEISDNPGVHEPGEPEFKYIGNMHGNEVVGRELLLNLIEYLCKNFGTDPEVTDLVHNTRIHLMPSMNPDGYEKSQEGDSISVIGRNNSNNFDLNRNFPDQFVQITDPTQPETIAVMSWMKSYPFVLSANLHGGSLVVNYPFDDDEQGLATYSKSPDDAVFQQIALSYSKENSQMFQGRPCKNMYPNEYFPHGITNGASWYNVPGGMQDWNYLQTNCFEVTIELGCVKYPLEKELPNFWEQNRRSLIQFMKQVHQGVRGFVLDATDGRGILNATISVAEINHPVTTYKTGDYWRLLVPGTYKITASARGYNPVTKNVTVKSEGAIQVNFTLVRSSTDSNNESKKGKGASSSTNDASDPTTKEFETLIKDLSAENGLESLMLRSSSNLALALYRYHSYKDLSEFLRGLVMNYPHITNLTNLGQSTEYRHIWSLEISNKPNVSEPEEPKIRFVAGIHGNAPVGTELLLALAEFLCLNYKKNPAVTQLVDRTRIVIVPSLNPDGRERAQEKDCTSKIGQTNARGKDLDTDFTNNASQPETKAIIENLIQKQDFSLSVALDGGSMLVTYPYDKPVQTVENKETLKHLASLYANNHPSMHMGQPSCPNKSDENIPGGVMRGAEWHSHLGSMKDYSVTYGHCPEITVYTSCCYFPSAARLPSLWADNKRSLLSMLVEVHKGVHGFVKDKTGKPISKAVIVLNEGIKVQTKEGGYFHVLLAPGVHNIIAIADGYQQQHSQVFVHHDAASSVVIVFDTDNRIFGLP
# T3: ADP320
# T3 chain: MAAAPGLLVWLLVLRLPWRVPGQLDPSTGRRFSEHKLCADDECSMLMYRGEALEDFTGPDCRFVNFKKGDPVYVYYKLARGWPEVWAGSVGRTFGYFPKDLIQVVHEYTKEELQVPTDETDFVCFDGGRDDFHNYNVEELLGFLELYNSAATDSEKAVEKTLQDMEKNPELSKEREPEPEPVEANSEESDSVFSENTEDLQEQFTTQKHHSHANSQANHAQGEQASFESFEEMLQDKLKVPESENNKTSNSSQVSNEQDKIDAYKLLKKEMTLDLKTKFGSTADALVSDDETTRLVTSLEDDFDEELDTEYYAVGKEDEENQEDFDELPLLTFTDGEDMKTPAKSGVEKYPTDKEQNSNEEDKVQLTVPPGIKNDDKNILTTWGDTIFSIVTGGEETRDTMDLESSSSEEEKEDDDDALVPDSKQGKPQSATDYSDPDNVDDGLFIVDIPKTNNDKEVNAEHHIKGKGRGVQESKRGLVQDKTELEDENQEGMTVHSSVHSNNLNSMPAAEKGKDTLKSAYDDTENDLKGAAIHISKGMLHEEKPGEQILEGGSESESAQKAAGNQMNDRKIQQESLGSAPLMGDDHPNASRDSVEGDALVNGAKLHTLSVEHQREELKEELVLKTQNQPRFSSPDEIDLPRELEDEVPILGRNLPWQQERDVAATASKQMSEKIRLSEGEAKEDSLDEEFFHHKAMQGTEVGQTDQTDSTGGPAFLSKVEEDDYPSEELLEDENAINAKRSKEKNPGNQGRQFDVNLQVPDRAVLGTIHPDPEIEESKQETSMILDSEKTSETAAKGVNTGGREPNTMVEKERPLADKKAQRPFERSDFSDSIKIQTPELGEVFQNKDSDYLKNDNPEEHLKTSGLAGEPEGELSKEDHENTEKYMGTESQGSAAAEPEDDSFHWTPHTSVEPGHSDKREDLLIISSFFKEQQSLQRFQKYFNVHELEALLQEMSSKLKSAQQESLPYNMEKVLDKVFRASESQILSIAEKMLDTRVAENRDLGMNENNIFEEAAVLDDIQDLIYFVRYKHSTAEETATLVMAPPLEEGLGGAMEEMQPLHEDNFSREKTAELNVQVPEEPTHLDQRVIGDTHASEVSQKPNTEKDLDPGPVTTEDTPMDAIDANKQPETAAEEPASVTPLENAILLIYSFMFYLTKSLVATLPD
# T4: ADP375
# T4 chain: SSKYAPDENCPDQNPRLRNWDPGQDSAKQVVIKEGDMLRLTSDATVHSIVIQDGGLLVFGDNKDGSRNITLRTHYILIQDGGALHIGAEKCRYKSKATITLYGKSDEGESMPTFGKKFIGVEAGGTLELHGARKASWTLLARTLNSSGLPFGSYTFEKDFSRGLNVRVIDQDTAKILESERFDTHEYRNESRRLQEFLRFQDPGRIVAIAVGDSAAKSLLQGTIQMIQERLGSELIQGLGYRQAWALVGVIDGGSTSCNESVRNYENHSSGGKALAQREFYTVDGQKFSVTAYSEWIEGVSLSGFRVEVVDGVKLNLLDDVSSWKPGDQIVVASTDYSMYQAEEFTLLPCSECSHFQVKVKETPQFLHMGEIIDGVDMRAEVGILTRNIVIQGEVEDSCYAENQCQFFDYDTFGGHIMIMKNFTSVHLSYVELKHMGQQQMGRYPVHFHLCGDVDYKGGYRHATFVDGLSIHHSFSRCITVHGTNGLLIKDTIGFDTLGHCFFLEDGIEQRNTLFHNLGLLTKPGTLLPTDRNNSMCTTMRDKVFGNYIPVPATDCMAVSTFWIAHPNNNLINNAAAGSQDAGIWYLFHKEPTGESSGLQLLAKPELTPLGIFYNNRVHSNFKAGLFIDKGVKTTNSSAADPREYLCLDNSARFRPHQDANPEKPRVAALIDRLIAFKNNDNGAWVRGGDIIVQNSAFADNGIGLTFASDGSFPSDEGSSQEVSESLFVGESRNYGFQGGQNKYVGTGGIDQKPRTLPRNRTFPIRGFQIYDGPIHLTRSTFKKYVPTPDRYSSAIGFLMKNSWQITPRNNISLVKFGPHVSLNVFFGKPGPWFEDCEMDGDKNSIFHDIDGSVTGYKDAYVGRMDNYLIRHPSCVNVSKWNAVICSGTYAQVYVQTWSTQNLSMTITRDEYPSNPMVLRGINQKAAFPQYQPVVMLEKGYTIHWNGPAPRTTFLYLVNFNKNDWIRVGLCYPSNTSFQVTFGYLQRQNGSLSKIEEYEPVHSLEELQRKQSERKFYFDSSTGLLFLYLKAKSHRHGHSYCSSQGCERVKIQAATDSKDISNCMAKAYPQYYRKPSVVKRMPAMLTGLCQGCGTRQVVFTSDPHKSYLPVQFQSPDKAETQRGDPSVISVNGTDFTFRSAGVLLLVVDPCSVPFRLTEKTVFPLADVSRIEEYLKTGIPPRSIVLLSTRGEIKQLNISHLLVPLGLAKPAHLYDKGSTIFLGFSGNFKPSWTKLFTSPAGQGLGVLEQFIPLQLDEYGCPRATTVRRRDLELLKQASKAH
# B1: ADP172 (protein)
# chain: YLEQIKNGISGHYTEDHNIKNNNCISFSDYERSIKNFAISSHAENNYDNIINEYKKIKDINNNINILSSVHRKGRILYDSFLEINKLENDKKEKHEKEDEYEDNDESFLETEEYEDNEDEKYNKDEDDYAESFIETDEYEDNEDDKYNKDEDDYSESFIETDEYDDNEEEQYNKDEDDYTDSFIETDHYENNDDKNEEEEEYNDQDNDYGYNFLETDEYDDSEEYDYDDKEYGESFLEKEEGEEMKDEEMKDEEMKDVEMKDEEMKDEEMKYDEMKNEEMKYDEMKDEVMKDEEMKDEVMKDEEMKDEQMKYEEFKNEESKNEESKNEESKNEESKNEEFKNEESKNEEFKNEEFKNEDMSYDEYMGYKKKEEDESYNTFNGAKKNNAANSFLEKDLQGDSDDELHSTFYSKNVDKENYDDKNIFYGYSDNDDESFLETDSYEEYEDEDKDVEDEYEESFLQNDEKKMVFYDLYKPEENEAYYEKKQKKEEKEEKEEKEQSLNKQNDMEDQEDNEEYKFEEENKEDLLDVQQDEELPSEGKQKVKGKSFDNEHLNEIQNVADVHAFIQKDMKYLDDLIDEEQTIKDAVKKSAYKGNKKLGNNKKSQMILEEEPEENFEEDADEELNKLMEQEKNIVDKEIKNSKANKANKKLQFNNANKQNKMYMKNEYNNKAKNNKNNKFEQQNYDESYMDDDYEQNEEFNDNNQAEDMKETNELDKINDELLTDQGPNEDTLLENNNKIFDNKFVAHKKREKSISPHSYQKVSTKVQNKEDMENKEEKQLINDEAAMTAEELVELENTEDVNTPTMVETEEIDSDENGNKAS
# modifications: bait human Fc-tagged dimer; N-glycosylation sequons mutated in Plasmodium baits
# B2: ADP193 (protein)
# chain: GEEKLTKFDPVMIKEGELFGEVSYDCEYSGFLEIENDDILYYCFFVGEDDHNGLLLRKFHMDDMVWGIPMEVLITRKKINLYILTVDYILSKLILIYSFDEKIRITVFNNYMEESVMSEKISINYEILYKANMISYITYFYKNKKSLCVCGMNRNENILCTFSFDYGLTMKDDHTIEFFLKKKIPLGHYKMQVTFKETEVYFNLYNDLNEANFYELKCVKKQDEYICDIMNKIRETQEYNYKRYTYPSSEHNKYYNDHHNKQPQGKQGQQGGAPLPNLGEEENNFIYKHIVRNKYFQMIVFQKDQKCYLAWSFNSLNINDEITKEISSVPCSNVASYYRQERLIVTLKKNQLGSRNHFFLIYEKLTEKGVGCEFGVGGSLYVTKTFMNNACDMDINNMNVATTNYDEINFALIIPLSFQLNYATCFIWEENVDNNEERSSLYYLEEYTNEKEDIKVYTFYFYKYILIYKNFKKSTCTFESKNNEKLYISFRGDTYYKEYNCNILLDSCDFFLHTQSKINIAYDDDVWQVSEELYDGFVMYNGAYVSLYDVLSRSNAHGLIYIDGKENNAAINLNNIKNNNNNNNNNNNNNNAANNNNIANNANSNNAFGEHEKVITIIIPYGIPSTRTIKIEFLNKQNNEEKRWAYLRLQKNEYIMKKVIGINSADIFDLSYKYYKYNQEKIKFILNDFSETTYLGFICQTKEEIKKSLCTISLVDHSHKNMAINNLFKTNNHILPFLYDQSPPRKIQPYNQIISEFRFVLFKNFHLFLQENKINYILLKCMCSSSSSYINTQKNIELSYLITNEQVSHDFIHTPGILIRPRTNIAHNDYQKNNKGNHKGNNKANNKANDKDSNNNANNNANKNGNNHNDNNNNNQNKDIDINSNYAIHNNNEKVKRTKKKINDAPYDKQDEELPSYDFNDLLHEKKNGASVFDFNFVLFLFICITFF
# modifications: bait human Fc-tagged dimer; N-glycosylation sequons mutated in Plasmodium baits
# Tests used:
# Test in all cases: AVEXIS screen signal:noise (double-corrected)
# ADP389 = target: T1, ADP389
# ADP334 = target: T2, ADP334
# ADP320 = target: T3, ADP320
# ADP326 = target: ADP326
# ADP375 = target: T4, ADP375
Binder,binding score (ADP389),binding score (ADP334),binding score (ADP320),binding score (ADP326),binding score (ADP375)
B1,7.86,13.1,–,–,–
B2,–,–,7.53,9.3,8.14
